Each block holds one binder with its values, some of them ahead of it.
What was measured:
[1] = biological target: T1, CD47 (UniProt Q08722 19-323, limits assumed); assay: flow cytometry on CD38^-CD47^+ Jurkat cells, FITC anti-human IgG-Fc
T1 construct: whole, on cells; also called CD47 on CD38^-CD47^+ Jurkat cells; CD47 on CD38^+CD47^+ NCI-H929 cells
Experimental: Cells were washed with cold 1% BSA-PBS twice, and then incubated with FITC-conjugated secondary antibody against human IgG-Fc (Cat #F9512, Sigma) for 45 min. Cells were washed twice and re-suspended in 200 μl PBS. Then, the cells were subject to FACS analysis using a flow cytometer (Merck Millipore, Guava® easyCyte 5HT).

[2] = biological target: T1, CD47; assay: FACS competition against SIRPα-mFc (3 µg/ml) on CD47^+CD38^+ NCI-H929 cells, PE anti-mouse IgG-Fc
Experimental: The resultant mixtures were added to the wells of a 96-well plate each containing 50 μl 1×10⁶/ml CD47⁺CD38⁺ NCI-H929 cells, and the plate was incubated at 4° C. for 45 min. […] Cells were washed twice, re-suspended in 200 μl PBS, and subject to FACS analysis.

EC50 [1]: 14.1 nM
IC50 [2]: 30.7 nM
B1: IMM5601 (bispecific antibody, human IgG1, kappa)
heavy: not shown
light: DIVMTQSHLSMSTSLGDPVSITCKASQDVSTVVAWYQQKPGQSPRRLIYSASYRYIGVPDRFTGSGAGTDFTFTISSVQAEDLAVYYCQQHYSPPYTFGGGTKLEIKRTVAAPSVFIFPPSDEQLKSGTASVVCLLNNFYPREAKVQWKVDNALQSGNSQESVTEQDSKDSTYSLSSTLTLSKADYEKHKVYACEVTHQGLSSPVTKSFNRGEC
notes: also called recombinant fusion protein; SIRPαD1-linker-anti-CD38 heavy chain + anti-CD38 light chain

EC50 [1]: 21.9 nM
B2: IMM5602 (bispecific antibody, human IgG1, kappa)
heavy: QVQLVQSGAEVAKPGTSVKLSCKASGYTFTDYWMQWVKQRPGQGLEWIGTIYPGDGDTGYAQKFQGKATLTADKSSKTVYMHLSSLASEDSAVYYCARGDYYGSNSLDYWGQGTSVTVSSASTKGPSVFPLAPSSKSTSGGTAALGCLVKDYFPEPVTVSWNSGALTSGVHTFPAVLQSSGLYSLSSVVTVPSSSLGTQTYICNVNHKPSNTKVDKRVEPKSCDKTHTCPPCPAPELLGGPSVFLFPPKPKDTLMISRTPEVTCVVVDVSHEDPEVKFNWYVDGVEVHNAKTKPREEQYNATYRVVSVLTVLHQDWLNGKEYKCKVSNKALPAPIAATISKAKGQPREPQVYTLPPSREEMTKNQVSLTCLVKGFYPSDIAVEWESNGQPENNYKTTPPVLDSDGSFFLYSKLTVDKSRWQQGNVFSCSVMHEALHNHYTQKSLSLSPGK
light: not shown
notes: also called recombinant fusion protein; anti-CD38 heavy chain + SIRPαD1-linker-anti-CD38 light chain
